Measured values as given in publication PMC5792442, “A comparative Study of Aptasensor Vs Immunosensor for Label-Free PSA Cancer Detection on GQDs-AuNRs Modified Screen-Printed Electrodes”.

Columns and labels:
[1] = biological target: T1, Prostate specific antigen (PSA) (UniProt P07288 25-261); experiment: electrochemical impedance spectroscopy (immobilized DNA); Rct unchanged with PSA; 0.1 M PBS pH 7.4, with or without 5 mM [Fe(CN)6]3-/4-; PSA 0-11.06 ng/mL; temperature not stated; conditions: protein: commercial
[2] = biological target: T1, Prostate specific antigen (PSA); experiment: electrochemical impedance spectroscopy, CV and DPV (immobilized aptamer); 5 mM [Fe(CN)6]3-/4-; also EIS without redox probe; LOD 0.14 ng/mL; 0.1 M PBS pH 7.4, with or without 5 mM [Fe(CN)6]3-/4-; PSA 0-11.06 ng/mL; temperature not stated; conditions: protein: commercial

T1 sequence (P07288 25-261): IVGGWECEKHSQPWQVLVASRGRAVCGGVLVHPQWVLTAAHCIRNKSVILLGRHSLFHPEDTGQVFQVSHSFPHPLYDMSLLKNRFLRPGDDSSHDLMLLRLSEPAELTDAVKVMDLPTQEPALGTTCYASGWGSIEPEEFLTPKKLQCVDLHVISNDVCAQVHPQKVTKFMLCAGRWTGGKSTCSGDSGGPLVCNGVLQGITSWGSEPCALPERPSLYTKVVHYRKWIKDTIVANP

| Binder | binding result [1] | binding result [2] |
| --- | --- | --- |
| TTTTGCCATCGGGGCCATGTTCAA (ssDNA) [random single strand DNA] | no binding | – |
| ATTAAAGCTCGCCATCAAATAGC (ssDNA) [PSA-Aptamer] | – | binds |
